Holding throughout (assay): cell-based or functional assay
Assay [1] has as its target HA molecule (haemagglutinin) of A/Kaizuka/2/65 (H2N2) (influenza A virus, H2N2 subtype, strain A/Kaizuka/2/65).
Assay [2] concerns the target HA molecule (haemagglutinin) of A/Sichuan/2/87 (H3N2) (influenza A virus, H3N2 subtype, strain A/Sichuan/2/87).
The target in assay [3] is HA molecule (haemagglutinin) of A/Adachi/2/57 (H2N2) (influenza A virus, H2N2 subtype, strain A/Adachi/2/57).
Assay [4] addresses HA molecule (haemagglutinin) of influenza B virus B/Nagasaki/1/87 (influenza B virus, strain B/Nagasaki/1/87).
Assay [5] concerns the target HA molecule (haemagglutinin) of A/Izumi/5/65 (H2N2) (influenza A virus, H2N2 subtype, strain A/Izumi/5/65).
Assay [6] concerns the target HA molecule (haemagglutinin) of A/Bangkok/10/83 (H1N1) (influenza A virus, H1N1 subtype, strain A/Bangkok/10/83).
The target in assay [7] is HA molecule (haemagglutinin) of A2/Aichi/2/68 (H3N2) (influenza A virus, H3N2 subtype, strain A2/Aichi/2/68).
The target of assay [8] is HA molecule (haemagglutinin) of A1/FM/1/47 (H1N1) (influenza A virus, H1N1 subtype, strain A1/FM/1/47).
The target in assay [9] is HA molecule (haemagglutinin) of A/Yamagata/120/86 (H1N1) (influenza A virus, H1N1 subtype, strain A/Yamagata/120/86).
Assay [10] has as its target HA molecule (haemagglutinin) of A/Suita/1/90 (H3N2) (influenza A virus, H3N2 subtype, strain A/Suita/1/90).
Assay [11] concerns the target HA molecule (haemagglutinin) of A/Fukuoka/C29/85 (H3N2) (influenza A virus, H3N2 subtype, strain A/Fukuoka/C29/85).
Assay [12] has as its target HA molecule (haemagglutinin) of A/Kitakyushu/159/93 (H3N2) (influenza A virus, H3N2 subtype, strain A/Kitakyushu/159/93).
For assay [13], the target named is HA molecule (haemagglutinin) of A/Osaka/930/88 (H1N1) (influenza A virus, H1N1 subtype, strain A/Osaka/930/88).
Assay [14] deals with HA molecule (haemagglutinin) of A/Kumamoto/1/65 (H2N2) (influenza A virus, H2N2 subtype, strain A/Kumamoto/1/65).
Assay [15] deals with HA molecule (haemagglutinin) of A/Ibaraki/1/90 (H3N2) (influenza A virus, H3N2 subtype, strain A/Ibaraki/1/90).
Assay [16] addresses HA molecule (haemagglutinin) of A/PR/8/34 (H1N1) (influenza A virus, H1N1 subtype, strain …, UniProt P03452 18-565).

Sequence of HA molecule (haemagglutinin) of A/PR/8/34 (H1N1) (P03452 18-565): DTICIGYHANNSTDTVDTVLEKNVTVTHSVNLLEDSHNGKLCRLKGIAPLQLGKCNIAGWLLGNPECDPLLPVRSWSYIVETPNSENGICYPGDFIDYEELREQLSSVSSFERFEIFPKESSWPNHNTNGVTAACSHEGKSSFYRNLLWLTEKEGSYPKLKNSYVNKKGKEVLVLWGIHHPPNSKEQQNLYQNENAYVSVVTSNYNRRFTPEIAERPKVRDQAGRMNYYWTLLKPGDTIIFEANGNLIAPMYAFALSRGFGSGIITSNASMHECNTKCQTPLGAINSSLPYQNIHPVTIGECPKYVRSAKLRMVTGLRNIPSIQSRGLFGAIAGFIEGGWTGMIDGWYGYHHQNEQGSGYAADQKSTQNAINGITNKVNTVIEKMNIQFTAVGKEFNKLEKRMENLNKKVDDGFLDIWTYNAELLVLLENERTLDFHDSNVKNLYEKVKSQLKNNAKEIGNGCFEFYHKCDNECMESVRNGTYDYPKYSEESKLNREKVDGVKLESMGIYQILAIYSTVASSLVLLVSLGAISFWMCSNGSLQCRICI

In the case of monoclonal antibody C179, the HI (hemagglutination inhibition titer) (fold dilution of the ascites fluid) in assay [1], in assay [2], in [3], in [4], in assay [5] and in [6] was under 32 each time. Further, the HI (hemagglutination inhibition titer) (fold dilution of the ascites fluid) in assay [7], in assay [8], in [9], in assay [10], in [11] and in assay [12] was under 32 in each case. In addition, the HI (hemagglutination inhibition titer) (fold dilution of the ascites fluid) in assay [13], in [14] and in [15] was under 32 each time.

B1: monoclonal antibody C179 (antibody)
chain 1: EVKLVESGGGLVQPGGSLRLSCGTSGFTLTDDYMTWVRQPPGKALEWLGFIRDRANGYTTEYSASVKGRFTISRDNSQSIVYLQMNTLRVEDSATYYCARPKGYFPYAMDYWGQGT
chain 2: DIQMTQSPASQSASLGESVTITCLASQTIGTWLAWYQQKPGKSPQLLIYAATSLADGVPSRFSGSGSGTKFSFKISSLQAEDFVSYYCQQLYSTPW
Regarding B1, the “HI (hemagglutination inhibition titer)” value in assay [16] is < 32 fold dilution of the ascites fluid.
